# In publication doi:10.1101/2025.05.27.656348:
# Target: RELMβ bait: RELMβ fused to rat CD4d3+4, BirA recognition site and 6X-histidine tag (mouse) (UniProt Q99P86)
# Experiment: SPR
# UniProt Q99P86, sequence (Q99P86 24-105): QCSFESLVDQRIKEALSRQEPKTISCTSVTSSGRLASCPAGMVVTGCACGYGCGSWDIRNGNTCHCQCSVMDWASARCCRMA
substance,measurement,value
"HpBoRB, C-terminal 6X-His tagged, from the pSecTAG2A expression vector (natural protein)",Kd,< 0.1 nM
